Patent publication US20200087367A1 (ACCELERON PHARMA, published 2020)

Assays:
[1] = target: T1, ActRIIA-mFc (human, UniProt P27037 21-135); assay: SPR (Biacore), ligand amine-coupled to chip, Fc fusion injected
T1 construct: not shown: linker and mouse Fc domain

[2] = target: T2, ActRIIB-mFc (human, UniProt Q13705 20-134); assay: SPR (Biacore), ligand amine-coupled to CM5 chip, Fc fusion injected
T2 sequence: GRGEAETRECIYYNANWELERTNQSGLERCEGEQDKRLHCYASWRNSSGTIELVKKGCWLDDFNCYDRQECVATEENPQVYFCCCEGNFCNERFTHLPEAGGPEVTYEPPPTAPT

[3] = target: T3, BMP10pro(22-312)-mFc (human, UniProt O95393 22-312); assay: SPR (Biacore), BMP10pro-Fc captured by anti-Fc antibody, ligand injected
T3 construct: also called mouse Fc equivalent construct; not shown: optional linker and mouse immunoglobulin G1 Fc domain
T3 sequence: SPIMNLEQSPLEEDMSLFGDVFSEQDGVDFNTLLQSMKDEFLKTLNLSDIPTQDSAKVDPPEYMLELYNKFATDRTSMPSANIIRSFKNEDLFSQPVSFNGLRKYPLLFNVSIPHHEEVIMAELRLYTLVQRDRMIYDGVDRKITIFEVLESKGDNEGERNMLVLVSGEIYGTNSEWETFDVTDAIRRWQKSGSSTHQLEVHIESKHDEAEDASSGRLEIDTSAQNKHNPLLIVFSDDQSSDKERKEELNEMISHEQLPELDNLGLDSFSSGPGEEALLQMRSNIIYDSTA
Description: (§1) The BMP10pro-Fc proteins were separately was captured onto the system using an anti-Fc antibody, and ligands were injected and allowed to flow over the captured receptor protein. […] The mouse Fc equivalent constructs behaved similarly. […] The affinity of BMP10pro(22-315)-hFc for BMP3b was not assessed.

[4] = target: T4, BMP10pro(22-315)-mFc (human, UniProt O95393 22-315); assay: as above
T4 construct: also called mouse Fc equivalent construct; not shown: optional linker and mouse immunoglobulin G1 Fc domain
T4 sequence: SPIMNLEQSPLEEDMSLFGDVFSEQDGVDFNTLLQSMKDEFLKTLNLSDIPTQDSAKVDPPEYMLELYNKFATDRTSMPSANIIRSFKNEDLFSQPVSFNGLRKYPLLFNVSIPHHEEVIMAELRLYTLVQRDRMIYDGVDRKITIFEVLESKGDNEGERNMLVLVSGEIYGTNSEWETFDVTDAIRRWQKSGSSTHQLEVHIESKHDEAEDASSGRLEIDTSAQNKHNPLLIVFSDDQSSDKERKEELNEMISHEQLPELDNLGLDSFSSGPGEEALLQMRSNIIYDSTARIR
Description: as §1

[5] = target: T5, hENG(166-346)-hFc (human, UniProt P17813 166-346); assay: SPR, captured hENG-hFc, soluble BMP9; '-' = Binding undetectable
T5 construct: HEK 293, purified; not shown: linker and human IgG1 Fc domain
T5 sequence: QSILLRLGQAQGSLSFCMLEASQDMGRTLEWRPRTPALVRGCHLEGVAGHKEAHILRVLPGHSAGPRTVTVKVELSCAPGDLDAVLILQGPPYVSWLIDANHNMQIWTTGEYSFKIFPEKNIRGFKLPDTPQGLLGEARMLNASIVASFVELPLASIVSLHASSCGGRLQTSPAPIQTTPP
Description: (§2) SPR methodology was used to screen these hENG-hFc protein variants for high-affinity binding to human BMP9 and BMP10. In these experiments, captured hENG-hFc proteins were exposed to soluble BMP9 or BMP10 at 100 nM each.

[6] = target: T6, hENG(26-257)-hFc (human, UniProt P17813 26-257); assay: as above
T6 construct: HEK 293, purified; not shown: linker and human IgG1 Fc domain
T6 sequence: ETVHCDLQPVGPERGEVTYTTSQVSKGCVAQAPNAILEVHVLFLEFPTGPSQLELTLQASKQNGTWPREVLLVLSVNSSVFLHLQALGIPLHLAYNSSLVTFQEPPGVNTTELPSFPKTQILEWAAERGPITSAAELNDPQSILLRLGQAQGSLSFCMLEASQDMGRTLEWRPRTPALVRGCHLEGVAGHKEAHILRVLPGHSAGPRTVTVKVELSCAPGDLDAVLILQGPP
Description: as §2

[7] = target: T7, hENG(360-581)-hFc (human, UniProt P17813 360-581); assay: as above
T7 construct: HEK 293, purified; not shown: linker and human IgG1 Fc domain
T7 sequence: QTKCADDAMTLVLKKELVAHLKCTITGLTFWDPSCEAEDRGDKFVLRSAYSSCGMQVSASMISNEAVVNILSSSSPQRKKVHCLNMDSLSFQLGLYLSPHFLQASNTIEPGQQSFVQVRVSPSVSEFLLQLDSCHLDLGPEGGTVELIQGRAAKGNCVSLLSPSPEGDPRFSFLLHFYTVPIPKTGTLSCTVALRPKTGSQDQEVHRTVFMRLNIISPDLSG
Description: as §2

[8] = target: T8, hENG(61-346)-hFc (human, UniProt P17813 61-346); assay: as above
T8 construct: HEK 293, purified; not shown: linker and human IgG1 Fc domain
T8 sequence: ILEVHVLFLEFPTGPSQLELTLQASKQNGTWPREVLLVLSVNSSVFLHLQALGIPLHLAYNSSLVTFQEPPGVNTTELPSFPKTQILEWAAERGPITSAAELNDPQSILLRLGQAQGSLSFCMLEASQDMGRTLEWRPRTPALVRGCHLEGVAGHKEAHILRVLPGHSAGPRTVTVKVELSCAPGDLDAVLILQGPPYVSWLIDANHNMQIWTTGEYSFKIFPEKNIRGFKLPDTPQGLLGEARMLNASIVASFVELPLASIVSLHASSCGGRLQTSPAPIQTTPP
Description: as §2

[9] = target: T9, hENG(26-332)-hFc (human, UniProt P17813 26-332); assay: as above
T9 construct: HEK 293, purified; not shown: linker and human IgG1 Fc domain
T9 sequence: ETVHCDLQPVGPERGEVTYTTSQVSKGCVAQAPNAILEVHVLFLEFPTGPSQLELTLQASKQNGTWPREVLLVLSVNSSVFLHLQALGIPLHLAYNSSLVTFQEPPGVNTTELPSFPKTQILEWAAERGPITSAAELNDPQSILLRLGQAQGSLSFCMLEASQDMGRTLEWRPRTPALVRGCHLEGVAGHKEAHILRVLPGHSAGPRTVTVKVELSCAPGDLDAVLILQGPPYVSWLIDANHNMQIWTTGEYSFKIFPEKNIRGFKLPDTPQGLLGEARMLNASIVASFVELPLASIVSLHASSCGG
Description: as §2

T1 sequence (P27037 21-135): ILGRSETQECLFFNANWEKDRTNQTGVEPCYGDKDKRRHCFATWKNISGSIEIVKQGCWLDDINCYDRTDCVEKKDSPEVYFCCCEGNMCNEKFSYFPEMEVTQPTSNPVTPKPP

B1: BMP10 (ligand)
chain: NAKGNYCKRTPLYIDFKEIGWDSWIIAPPGYEAYECRGVCNYPLAEHLTPTKHAIIQALVHLKNSQKASKACCVPTKLEPISILYLDKGVVTYKFKYEGMAVSECGCR
notes: also called hBMP-10; hBMP10
Which results are given for B1?
binding result [1]: binds; binding result [2]: binds; binding result [3]: binds; binding result [4]: binds

B2: BMP9 (ligand, human, UniProt Q9UK05 320-429, looked up)
chain: SAGAGSHCQKTSLRVNFEDIGWDSWIIAPKEYEAYECKGGCFFPLADDVTPTKHAIVQTLVHLKFPTKVGKACCVPTKLSPISVLYKDDMGVPTLKYHYEGMSVAECGCR
notes: also called hBMP-9; hBMP9
Does B2 bind [1]?
Result: binds

Does B2 bind [2]?
Result: binds

Does B2 bind [5]?
Result: no binding (tested: 100 nM)

Does B2 bind [6]?
Result: no binding (tested: 100 nM)

Does B2 bind [7]?
Result: no binding (tested: 100 nM)

Does B2 bind [8]?
Result: no binding (tested: 100 nM)

Does B2 bind [9]?
Result: no binding (tested: 100 nM)

Does B2 bind [3]?
Result: binds

Does B2 bind [4]?
Result: binds
